Source: patent US20250215091A1, “Anti-GAL3 Antibodies and Compositions” (Les Laboratoires Servier, priority 2022, published 2025)

Columns and labels:
[1] = molecular target: T1, CRD domain of human Galectin-3 (human, UniProt P17931 106-250); experiment: competitive ELISA, inhibition of ASF binding to immobilized Hu-Gal3-CRD
T1 construct: Histidine-tagged; also called hu-Gal3-CRD; Hu-Gal3-CRD
Method: The inhibitory properties and IC50 of the anti-Gal3 antibodies were determined in an ELISA competitive assay by measuring the binding of ASF to immobilized CRD domain of human Gal3 in absence or presence of the antibodies at different concentrations.
The inhibition assay was performed on Hu-Gal3-CRD which was immobilized at 1 μg/mL through its His-tag on functionalized microplates. A 2-fold or 3-fold serial dilution was carried-out with the purified IgGs and added to the wells with immobilized Hu-Gal3-CRD. ASF (A1908-Sigma reference) was added at 8 μg/mL in each well with or without IgGs. ASF binding to Hu-Gal3-CRD was detected with the HRP-labeled anti-ASF sheep antibody. IC50 were estimated according to the model equation Y=Bottom+(Top−Bottom)/(1+(X/IC50)). Indicative maximal percentages of inhibition were obtained with the formula: 100%−(((mean of bottom plateau values of IgGs)×100%)/mean of irrelevant IgG values)

[2] = molecular target: T2, full length human Galectin-3 (human, UniProt P17931 2-250); experiment: dose-response ELISA on immobilized Hu-Gal3-FL, IgG
T2 construct: Printed as 'full length'; recombinant, immobilized through a histidine tag; also called hu-Gal3-FL; Hu-Gal3-FL
Method: (§1) To determine the half maximal effective concentration (EC50) of the antibodies, ELISA dose-response experiments were performed on Hu-Gal3-FL and on m-Gal3-FL.
(§2) Hu-Gal3-FL and m-Gal3-FL were immobilized at 3 μg/mL through their His-tag on functionalized microplates as before. A 3.3-fold serial dilution was carried-out with the purified IgGs, added to the wells containing immobilized Hu-Gal3-FL or m-Gal3-FL and detected with an anti-Fab.HRP antibody.

[3] = molecular target: T3, full length mouse Galectin-3 (mouse, UniProt P16110 2-264); experiment: ratio of the ELISA EC50 values on Hu-Gal3-FL and m-Gal3-FL
T3 construct: Printed as 'full length'; recombinant, immobilized through a histidine tag; also called m-Gal3-FL; murine Gal3
Method: as §1, §2

[4] = molecular target: T4, human full-length Galectin-1 (human, UniProt P09382 2-135); experiment: ELISA on immobilised antigen (3 µg/mL), purified IgG at 15-20 µg/mL, anti-Fab.HRP, OD 450 nm
T4 construct: full-length; Histidine-tagged; also called Hu-Gall; Gall
Method: (§3) IgG specificity to Gal3 was tested by checking the absence of binding on human Gall and Gal7 by ELISA.
(§4) Hu-Gall and Hu-Gal7 were immobilized at 3 μg/mL. Purified IgGs were added into the wells (15-20 μg/mL final concentration) and detected with an anti-Fab.HRP antibody. Rabbit antibodies directed against Gall (Abcam ab25138 reference) and Gal7 (Abcam ab108623 reference) were used at 5 μg/mL as antigen-coating positive controls and detected with an anti-rabbit.HRP secondary antibody (7074S-Cell Signaling reference).

[5] = molecular target: T5, human full-length Galectin-7 (human, UniProt P47929 1-136); experiment: as above
T5 construct: full-length; Histidine-tagged; also called Hu-Gal7; Gal7
Method: as §3, §4

[6] = molecular target: T3, full length mouse Galectin-3; experiment: dose-response ELISA on immobilized m-Gal3-FL, IgG
Method: as §1, §2

[7] = molecular target: T3, full length mouse Galectin-3; experiment: SPR Biacore T-200, antibody captured by anti-human Fc, Gal3 in solution
Method: (§5) The CM5 sensor surface was first immobilized with an anti-human Fc mAb using a standard protocol. The entire sensor surface was first activated by injecting a 1:1 (v/v) mixture of 400 mM EDC and 100 mM NHS at a flow rate of 10 μL/minute for 7 minutes. Monoclonal anti-human Fc antibody (Millipore AP113), 25 μg/mL in Na acetate pH5, 360 s were flowed at 10 μL/minute to reach 10000 RU on both flow cells followed by the injection of 1 M ethanolamine, pH8.5 for 7 minutes at a flow rate of 10 μL/minute. During the entire immobilization procedure, HBS-P was used as the running buffer.
(§6) Antibody samples were prepared at 5 μg/ml and were injected for 30 seconds at 10 μL/minute. In general, 400 to 680 resonance units of antibodies were captured on the chip.

[8] = molecular target: T2, full length human Galectin-3; experiment: as above
Method: as §5, §6

Gal3 CRD domain from dog = molecular target: T6, Gal3 CRD domain from dog (dog, UniProt P38486 152-296, limits assumed); experiment: SPR single-cycle kinetics, captured antibody, Gal3-CRD 0.5-50 nM
T6 construct: domain: CRD domain; also called dog Gal3-CRD
T6 sequence (looked up): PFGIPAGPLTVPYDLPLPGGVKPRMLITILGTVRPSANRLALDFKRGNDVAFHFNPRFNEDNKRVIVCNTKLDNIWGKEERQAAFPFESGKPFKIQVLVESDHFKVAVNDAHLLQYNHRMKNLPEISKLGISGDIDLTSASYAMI
Method: as §5, §6
(§7) Kd values were also determined by SPR using […] kinetics analysis. A total of 5 concentrations of Gal3 CRD domain from human, dog, rat and cynomolgus (Novalix) [0.5-50] nM were injected over the antibody capture surfaces for 210 seconds followed by a dissociation phase of 600 seconds at 30 μL/minute. At the end of each cycle, capture surfaces were regenerated by 2 injections of glycine pH 1.5, for 30 seconds at 10 μL/minute, followed by an extra wash with glycine pH 1.5. Fresh antibody was captured at the beginning of each cycle.

Gal3 CRD domain from rat = molecular target: T7, Gal3 CRD domain from rat (rat, UniProt P08699 118-262, limits assumed); experiment: as above
T7 construct: domain: CRD domain; also called rat Gal3-CRD
T7 sequence (looked up): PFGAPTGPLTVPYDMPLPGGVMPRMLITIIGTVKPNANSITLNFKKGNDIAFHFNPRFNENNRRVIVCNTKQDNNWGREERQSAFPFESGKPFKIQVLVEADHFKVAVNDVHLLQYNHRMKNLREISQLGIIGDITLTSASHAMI
Method: as §5, §6, §7

[9] = molecular target: T8, Gal3 CRD domain from cynomolgus (cynomolgus, UniProt A0A7N9CYL1 103-247); experiment: as above
T8 construct: domain: CRD domain; also called cynomolgus Gal3-CRD
Method: as §5, §6, §7

[10] = molecular target: T1, CRD domain of human Galectin-3; experiment: as above
Method: as §5, §6, §7

T1 sequence (P17931 106-250 limits assumed): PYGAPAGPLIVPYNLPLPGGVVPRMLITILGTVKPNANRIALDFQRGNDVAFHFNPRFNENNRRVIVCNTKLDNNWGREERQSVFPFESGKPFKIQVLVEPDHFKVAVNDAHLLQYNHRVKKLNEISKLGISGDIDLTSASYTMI
T4 sequence (P09382 2-135 limits assumed): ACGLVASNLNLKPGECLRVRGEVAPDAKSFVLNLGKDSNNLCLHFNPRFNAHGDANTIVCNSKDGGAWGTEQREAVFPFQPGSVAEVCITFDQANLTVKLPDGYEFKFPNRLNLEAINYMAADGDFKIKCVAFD
T3 sequence (P16110 2-264 limits assumed): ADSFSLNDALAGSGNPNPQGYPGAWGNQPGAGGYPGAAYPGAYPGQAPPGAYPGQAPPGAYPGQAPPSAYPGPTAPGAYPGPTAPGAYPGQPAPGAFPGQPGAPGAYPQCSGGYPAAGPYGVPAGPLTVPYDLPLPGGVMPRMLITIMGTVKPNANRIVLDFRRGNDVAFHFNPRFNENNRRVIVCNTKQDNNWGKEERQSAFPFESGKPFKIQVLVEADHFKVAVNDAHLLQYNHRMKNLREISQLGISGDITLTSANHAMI
T5 sequence (P47929 whole entry): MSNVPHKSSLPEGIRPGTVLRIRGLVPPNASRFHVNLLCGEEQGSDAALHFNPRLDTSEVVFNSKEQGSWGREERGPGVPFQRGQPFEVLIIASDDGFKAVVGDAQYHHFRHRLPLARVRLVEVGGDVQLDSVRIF
T2 sequence (P17931 2-250 limits assumed): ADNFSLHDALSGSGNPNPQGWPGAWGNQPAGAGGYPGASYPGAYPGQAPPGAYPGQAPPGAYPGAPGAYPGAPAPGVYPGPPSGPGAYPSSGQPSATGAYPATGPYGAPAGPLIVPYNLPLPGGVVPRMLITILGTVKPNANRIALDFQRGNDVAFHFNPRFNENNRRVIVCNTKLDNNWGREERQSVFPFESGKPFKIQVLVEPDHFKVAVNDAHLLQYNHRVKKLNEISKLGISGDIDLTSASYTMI

B1: anti-Gal3 antibody D06 (antibody, V domains shown)
VH: EVQLVESGGSLVKPGGSLRLSCAASGFTFSNYNMNWVRQAPGKGLEWISSIYGSSRYIYYADFVKGRFTISRDNAKNSLYLQMNSLRAEDTAVYYCVRSGYGGMDVWGRGTLVTVSS
VL: QSVLTQPASVSGSPGQSITISCAGTSSDVGGYNGVSWYQQHPGKAPKLMIYYDSYRPSGVSNRFSGSKSGNTASLTISGLQAEDEADYYCSSGTDYSTRVFGGGTKLEIK
B1 gave an IC50 [1] of 5.1 nM, a Max % inhibition [1] of 82% and an EC50 [2] of 0.26 nM. For the same binder, the “Ratio (Human/mouse Gal3 EC50 ratio)” value [3] was 2, the binding result [4] was “no binding (tested: 15-20 µg/mL)” and the binding result [5] was “no binding (tested: 15-20 µg/mL)”. The EC50 [6] was 0.16 nM, the Kd [7] was 1.34 nM and the Kd [8] was 13 nM. It also gave a Kd (Gal3 CRD domain from dog) of 12 nM, a Kd (Gal3 CRD domain from rat) of 4.8 nM and a Kd [9] of 10 nM. It also gave a Kd [10] of 15 nM.

B2: anti-Gal3 antibody G03 (antibody, V domains shown)
VH: EVQLVESGGSLVKPGGSLRLSCAASGFTFSNYAMNWVRQAPGKGLEWISSIYGSSRYIYYADFVKGRFTISRDNAKNSLYLQMNSLRAEDTAVYYCVRSYNGGMDVWGRGTLVTVSS
VL: QSVLTQPASVSGSPGQSITISCAGTSSDVGGYYNVAWYQQHPGKAPKLMIYYDSYRPSGVSNRFSGSKSGNTASLTISGLQAEDEADYYCSSSTGYSTRVFGGGTKLEIK
B2 was tested, and the IC50 [1] was 1.8 nM, the Max % inhibition [1] was 83% and the EC50 [2] was 0.52 nM. For the same binder, the “Ratio (Human/mouse Gal3 EC50 ratio)” value [3] was 26, the binding result [4] was “no binding (tested: 15-20 µg/mL)” and the binding result [5] was “no binding (tested: 15-20 µg/mL)”. It also gave an EC50 [6] of 13.6 nM, a Kd [7] of 4.53 nM and a Kd [8] of 6 nM.

B3: anti-Gal3 antibody E01 (antibody, V domains shown)
VH: EVQLVESGGSLVKPGGSLRLSCAASGFTFSNNYMNWVRQAPGKGLEWISNINGASRNIAYADFVKGRFTISRDNAKNSLYLQMNSLRAEDTAVYYCVRSSDYDGGMDVWGRGTLVTVSS
VL: QSVLTQPASVSGSPGQSITISCAGTSSDVGGNSYVSWYQQHPGKAPKLMIYYDSYRPSGVSNRFSGSKSGNTASLTISGLQAEDEADYYCSSSTYGSTRVFGGGTKLEIK
B3 was tested, and the IC50 [1] was 3.2 nM, the Max % inhibition [1] was 63% and the EC50 [2] was 14.3 nM. The “Ratio (Human/mouse Gal3 EC50 ratio)” value [3] was 2, the binding result [4] was “no binding (tested: 15-20 µg/mL)” and the binding result [5] was “no binding (tested: 15-20 µg/mL)”. For the same binder, the EC50 [6] was 25.9 nM, the Kd [7] was 7.81 nM and the Kd [8] was 6.26 nM.

B4: anti-Gal3 antibody E02 (antibody, V domains shown)
VH: EVQLVESGGSLVKPGGSLRLSCAASGFTFSNYAMNWVRQAPGKGLEWISSIYGSSRSISYADFVKGRFTISRDNAKNSLYLQMNSLRAEDTAVYYCVRSSYNYYYGNGMDVWGRGTLVTVSS
VL: QSVLTQPASVSGSPGQSITISCAGTSSDVGGYGGVSWYQQHPGKAPKLMIYYDSYRPSGVSNRFSGSKSGNTASLTISGLQAEDEADYYCSSSTSYSTRVFGGGTKLEIK
B4 showed an IC50 [1] of 5.2 nM, a Max % inhibition [1] of 65% and an EC50 [2] of 34 nM. The “Ratio (Human/mouse Gal3 EC50 ratio)” value [3] was 2, the binding result [4] was “no binding (tested: 15-20 µg/mL)” and the binding result [5] was “no binding (tested: 15-20 µg/mL)”. For the same binder, the EC50 [6] was 76 nM, the Kd [7] was 4.13 nM and the Kd [8] was 7.38 nM.

B5: anti-Gal3 antibody D11 (antibody, V domains shown)
VH: EVQLVESGGSLVKPGGSLRLSCAASGFTFSNYNMNWVRQAPGKGLEWISSIYGSSRYIYYADFVKGRFTISRDNAKNSLYLQMNSLRAEDTAVYYCVRSSYGGMDVWGRGTLVTVSS
VL: QSVLTQPASVSGSPGQSITISCAGTSSDVGGSYNVAWYQQHPGKAPKLMIYYDSYRPSGVSNRFSGSKSGNTASLTISGLQAEDEADYYCSSYTGYSTRVFGGGTKLEIK
Binder B5 has an IC50 [1] of 2.2 nM, a Max % inhibition [1] of 99% and an EC50 [2] of 0.37 nM. For the same binder, the “Ratio (Human/mouse Gal3 EC50 ratio)” value [3] was 3, the binding result [4] was “no binding (tested: 15-20 µg/mL)” and the binding result [5] was “no binding (tested: 15-20 µg/mL)”. The EC50 [6] was 0.99 nM, the Kd [7] was 2.8 nM and the Kd [8] was 15 nM. It also gave a Kd (Gal3 CRD domain from dog) of 26 nM, a Kd (Gal3 CRD domain from rat) of 8.6 nM and a Kd [9] of 11 nM. It also gave a Kd [10] of 26 nM.

B6: anti-Gal3 antibody H07 (antibody, V domains shown)
VH: EVQLVESGGSLVKPGGSLRLSCAASGFTFSNYNMNWVRQAPGKGLEWISNIDGSSRYIYYADFVKGRFTISRDNAKNSLYLQMNSLRAEDTAVYYCVRSYYGGMDVWGRGTLVTVSS
VL: QSVLTQPASVSGSPGQSITISCAGTSSDVGGYYNVAWYQQHPGKAPKLMIYYDSYRPSGVSNRFSGSKSGNTASLTISGLQAEDEADYYCSSSTGYSTRVFGGGTKLEIK
Binder B6 has an IC50 [1] of 6 nM, a Max % inhibition [1] of 74% and an EC50 [2] of 2.4 nM. For the same binder, the “Ratio (Human/mouse Gal3 EC50 ratio)” value [3] was 37, the binding result [4] was “no binding (tested: 15-20 µg/mL)” and the binding result [5] was “no binding (tested: 15-20 µg/mL)”. It also gave an EC50 [6] of 88 nM, a Kd [7] of 4.86 nM and a Kd [8] of 5.65 nM.

B7: anti-Gal3 antibody E07 (antibody, V domains shown)
VH: EVQLVESGGSLVKPGGSLRLSCAASGFTFSNYNMNWVRQAPGKGLEWISNIYGSSRYIYYADFVKGRFTISRDNAKNSLYLQMNSLRAEDTAVYYCVRSYYGGMDVWGRGTLVTVSS
VL: QSVLTQPASVSGSPGQSITISCAGTSSDVGGYYSVSWYQQHPGKAPKLMIYYDSNRPSGVSNRFSGSKSGNTASLTISGLQAEDEADYYCSSYTGYSTRVFGGGTKLEIK
Binder B7 has an IC50 [1] of 1.5 nM, a Max % inhibition [1] of 89% and an EC50 [2] of 0.07 nM. The “Ratio (Human/mouse Gal3 EC50 ratio)” value [3] was 4, the binding result [4] was “no binding (tested: 15-20 µg/mL)” and the binding result [5] was “no binding (tested: 15-20 µg/mL)”. The EC50 [6] was 0.3 nM, the Kd [7] was 4.14 nM and the Kd [8] was 9 nM. For the same binder, the Kd (Gal3 CRD domain from dog) was 23 nM, the Kd (Gal3 CRD domain from rat) was 15 nM and the Kd [9] was 7.4 nM. It also gave a Kd [10] of 14 nM.
